Data from the DeepSol protein solubility set.

Assay: soluble on expression in E. coli; label from the status in PepcDB or PDB records

Row | Sequence | soluble on expression in E. coli
1 | MSDSSNQLMPLSLSAPGVNLGAYISTVNQIPILTAEQEKELAERYYYDQDLDAAKMLVMSHLRFVVHIARSYAGYGLPQGDLIQEGNLGLMKAVKRFDPNMGVRLVSFAVHWIKAEIHEYVIRNWRIVKIATTKAQRKLFFNLRSLKKSSKKLTLEEAQSIANDLNVTPEQVLEMEGRLTAYDAAFETQGDDDDDSSTHVAPALYLEDNRYDPARLAENDDYEEQSSTALHEAMNQLDDRSRNILQRRWLDDDKSTLHELAAEYNVSAERIRQLEKNAMEKIKVAMSAG | not soluble
2 | MAKTYDYLFKLLLIGDSGVGKTCVLFRFSDDSFNNSFISTIGIDFKIRTIELDGKKIKLQIWDTAGQERFRTITTAYYRGAMGIILVYDITNERSFENIKNWIRNIEEHAASDVERMIIGNKCDIEERREVSRDRGEQLAIEYGTKFLETSAKANLNIDEAFFTLARDIKSKMEQNEMRAGGSVSNTGRVNVGGSGTQKKSFFSNWSCNLL | not soluble
3 | MGSDKIHHHHHHMRVFIIHLSPKTCQNFSLKETHITPLLESLKLQGISYEIFDAIYSKISPTQLHPLILEHLHPSFMVEDLWAFCKNKKHPPCALKNFFYAIKHCGKRMGFGELGCYASHYSLWQKCIELNEAICILEDDIIIKDRFKESLEFCRHHINELGYIRLMHLEENVAKQKTPVKGVSQILNFKDGIGTQGYVLAPKAAQKLLKYSAKEWVMPIDCVMDRHYWHGVKNYVLEEFAIACDGMNAQNSNTEKQRPKKLPLSIRIGRSLHKSTIKFLDKVFRYSPKLIRIGKH | not soluble
4 | MSLALLLRVRRLRLDRAERAQGRQLLRVRAAAQEHTERQAAQRDYRDWRLAEEQRLFLACQAAMLDRRRLEAWQQQVGLLREKEAGLEQDCAEAAQRLEGERERLRQCRRELLERQRQLEKFAELERHVDAERQGLRERSEEGELEEFTRHETWPCSSLEHHHHHH | not soluble
5 | MVYRKVTISTKVFENTNAIVAWVSGRPVLLSKYEGKYYAMDAVCGHMGCAILDKVEGKEAVCPAHRARYDVTTGKKTADAVIRPEVKCEYNEASDTLKVYPVRENNGFLEVDMP | not soluble
6 | MSLEKYNAEVERDPFANRVFEQEEKRELTSEQRIAYENIKEKINNSEQRTFLLHGVTGSGKTEVYLQTIEEVLNKGKEAMMLVPEIALTPQMVLRFKRRFGDDVAVLHSGLSNGERYDEWQKIRDGRARVSVGARSSIFAPFKNLGIIIIDEEHESTYKQEDYPRYHARDIAEWRSQFHQCPLVLGSATPSLESYARTEKGVYQLLTLPTRVNQQALPSIDIVDMREELSAGNRSMFSNELREAIEDRLRKNEQIVLFLNRRGYASFMLCRDCGYVPQCPHCDISLTYHKSTDQLKCHYCGYHEVPPNKCPNCESSHIRQVGTGTQRVEEILQQEFEEARIIRMDVDTTSRKGAHEKLLNEFEEGKGDILLGTQMIAKGLDYPNITLVGVLNADTMLNLPDFRASERTYQLLTQVAGRAGRHDKPGRVIIQTYNPEHYAIQDVQKNDYLTFYQKEMEYRKIGKYPPYYFLINFTISHKNMKKVMEASKHIHQILLQHLTDRALVLGPSPAAIARINNEHRFQILVKYKSEPELLKALQYLDDYYHEAYLKNKLALKIDINPQILMEGHHHHHH | soluble
7 | MGSDKIHHHHHHMQDLLRWKNSKHRKPLILKGVRQVGKTWLLKEFARRYYNNLAYFNFDEHPEYKQFFENTKDVERILQNLMMASGQIINPKEPGTTLIVFDEIQECPNALNTLKYFCENTPHYHVACAGSLLGIALSKPASFPVGKVDFLEIGPMTFTEFLLANGDGNFVSYLDNLDRIEPIPDAFFNPLYEKLKMYFVTGGMPESVRSWTEERDVELVQQVLANILGAYERDFAKHPDPKDFPKISLIWKSLPSQLARENKKFIYKVVKEGARAREYEEALQWLCDASLAYKIYRSSAPGLPISAYDDLAAFKLYLVDVGLLRRLSLLAPSAFGEGNRLFVEFKGALSENYVLQALRNQLEAMPRYWTMDNPRHEVDFLIQRENEIIPVEVKSETNVESRSLKKFKEKYGDKVKLRVRFSLNNLRLDGDLLNIPLFITDYADKLIGMALTDQPKE | not soluble
8 | MTEPIFMVGARGCGMTTVGRELARALGYEFVDTDIFMQHTSGMTVADVVAAEGWPGFRRRESEALQAVATPNRVVATGGGMVLLEQNRQFMRAHGTVVYLFAPAEELALRLQASLQAHQRPTLTGRPIAEEMEAVLREREALYQDVAHYVVDATQPPAAIVCELMQTMRLPAA | soluble
9 | MSLSYRIDGLQYANWSEKIFRQLRAGNVDAVHVTIAYHESFRETVLNFEKWNRWFEQYPDLIMKGQWASDIDTARETGRTAIFFGFQNPSPIEDDIGLVEILHTLGARFMQLTYNNQSLLATGCYEAEDAGITRMGRQVIKEMNRVGLVVDMSHSADRSTIEAVEISERPIAITHANPHDWAPALRNKRDDVIRAVTENGGMLGFSVYPHHLKDKSDCTLDSFCEMIARTAERYGVDHLGIGTDLCQDQPDSVVEWMRTGRWSKEIDFGEGSASAPGFPPMPHWFEDNRDFGNIENGLRATGLNKDEVAGIMGGNWYRFFAQNFVPQGEGHHHHHH | soluble
10 | GPGSMRPNVMLTIPKNTLQVFDMGLDFRSYLSRVDVNGLPVLGNVVSYEASKLTEVFTPTVGLLVTILHMLAHCTSSCSAVAWLKAYDAIQKMYIENSEEENTEAVRYAVEARAAIKDYLTGDAVPGTNLLCEKLLTLLDQQSGIHGSQAPSQRKVPREPKGAFCNLHLSDQKCYQDFACNQLHLQEVKTVRHRKIFYMRLIEVLKAEKRSRQQIRHRIKDSVFFARYGNKVTVQCQGKWIPFFKTVYTDGRLEQALRTQHFACGDSACADENCLGIHPQDRRVTTSSKLMDLNNPDVVLQQIEEEAERHLSMEGAFNDHEAEHISAAASSSSMPSPTSEMWRNTVREYVRQTGIPQVEADESLLRTLQDANVLATPTASTESLTPLLDELDMRTFSSSSPVREHPNAEIG | not soluble
11 | HRYGDEIDALVEAFNRMRESLAVAYQQQQGMLQAVRESEALLRAIARRIPNGGVWVVDTDGRYIMFEGSLVESLGLSGQEALGRMPGDLFGEPLADRLVGCYRLALAGGTLSEEIEYRERVLWIQFAPLEDEHGAVMAAVALGID | not soluble
12 | MPRLENTIDIKVPVNIAYNQWTQFETFPNFMSSVLQVKQLDDSHVWWQVEIGGHAIEWETEIIEQVPDDHIAWRSVSGPRHLGLVSFKHVDIHATRVHVEIEYEADMKAEVSATMTGLLEQKISEALTCYRQLLESRKRPAGGWRGRIAVGTDNAVRHLEHHHHHH | soluble
13 | MSLSAADMTQTIKTLALNVRLSCELLGVPESSYYERINRRPSETQLRRQHLTLKIVQLFKANRGIYGAPKIHHLLLDKEEKVGVKLVQKIMQQLQLKSVVLKKFKPGYSASDGINRKNLVQNEPTERNKVWSTDITYIPTQQGWAYLSTIMDRYTKKVIAWDLGKRMTVELVQRTLNKAIKSQDYPEAVILHSDQGSQYTSLEYEELLKYYGMTHSFSRRGYPYHNASLESWHGYLKREWVYQFKYKNFEEAYQSIFWYIEAFYNSKRIHQSLGYLTPNQFEKVSAEGHHHHHH | not soluble
14 | MYTYKIGISPEEHDQFVLAQPQAGLLQSSKWGKVKDNWKHERISFYENGVQVAAAACLIRKLPLGFTMIYIPRGPIMDYANFELLDFVIKTLKTFGKSKRALFIKIDPSLVIKQTLEGKESKENDVTLSIIAFLKKLGVEWSGRTKELEDTIQPRIQANIYAKDFDFDSLPKKAKQSIRTATNKGVNVTIGGSELLDDFSALMKKTENRKGIILRGKSYYQKLLGIYAGQSYITMASLDLPEQKKLLIQQLDKALAEQARLTDKSKPSKVAENQKTIARLQKDLTILSEQLATGQTRIPLAATLTLIYGETSENLYAGMDDDYRNYQAPLLTWYETAKEAFKRGCRWHNLGGVENQQDGGLYHFKARLNPTIEEFAGEFNIPVGLVSSLAILTYNLRKKLRSTTNGTN | not soluble
15 | MGSDKIHHHHHHMSQIIAIHSFRGGTGKSNIIANIGATMALKGQRVGIIDTDIQSPGIHIIFGLKEEKIRLTLNDYLWKRCDIQDTAYDVTDTLIAESGNTDKIRGSLYLIPSSIKAAEIARVLREGYDVVRLHDGFQEIIRSLKLDYLLIDTHPGLNEETLISIGIANTLLIILRPDNQDFQGTAVTVDVARKLKAARILLVLNKALASFNFTDLQQQLEQIYDVPVVGILPLAEDMVQLASKGLFCLRYPQHPITQTIQEITDQLAGLVVSHQ | not soluble
